Article PMC3195437 (Biochemical Journal, 2011)

Molecular target: the molecule itself
Experiment: SEC

Protein	stoichiometry N
rHhoBSA (recombinant, N-terminally truncated, proteolytically inactive HhoB of Synechocystis sp. PCC 6803, Ser258 replaced by alanine) (enzyme, UniProt P73940 51-416, looked up) SLTPAPVESNYRSALPLTLPRSAQDDQELNFIARAVQKIGPAVVRIDSERTAVSQGGPMGDQPFFRRFFGEEMPPNPDPREQGTGSGFILSSDGEVLTNAHVVEGASTVKVTLKDGSVLEGKVMGIDTMTDVAVVKVEAENLPVVEIGQSDRLQPGEWAIAIGNPLGLDNTVTVGIISALGRSSSEVGVPDKRVRFIQTDAAINPGNAGGPLLNAKGEVIGVNTAIRADAQGLGFAIPIQTAQNVAENLFTKGKMEHPYLGIHMVTLTPEMTKQLRTSGELPAGVTADTGVLIIQVSPGSPAAQAGLAPGDIILEVGGMGVKTATDVQERVEVSQIGEPLAIAVKRGQKPQMMAVRPGPFPEDLGQ	3
rHtrASA (recombinant, N-terminally truncated, proteolytically inactive HtrA of Synechocystis sp. PCC 6803, Ser296 replaced by alanine) (enzyme, UniProt P73354 94-452, looked up) SIAPANESLATNLQSRLSPREPSNFVVDVVESTGPAVVRINAQKTVKSQVPQAFNDPFLQRFFGSQMPPMPNERVQRGTGSGFIVSNDGKIFTNAHVVDGADEVTVTLKDGRSFPGRVMGSDPSTDVAVVKIEAGDLPTVALGDSDHLQVGEWAIAIGNPLGLDNTVTTGILSATGRRSADIGVPDKRVEFIQTDAAINPGNAGGPLLNADGQVIGMNTAIIQNAQGIGFAIPINKAQEIAQQLIATGKVEHAYLGIQMVTMTPELQSQIRQETGMNIPVDKGVVIMQVMPNSPAAIAKLEQGDVLQSLQGQPVENAEQVQSLVGKLAVGDEVELGILRNGQQQNLTVTIGALPSAPPQ	3
